Experiment: ion mobility collision cross-section
Assay type: physicochemical
Settings: native IM-MS, N2, calibrated with β-lactoglobulin and avidin
Excerpt: To isolate a stable HspB1-FLNCd18–21 complex and localize the binding within HspB1, we performed native ion mobility MS (IM-MS) experiments. […] Next, we mixed FLNCd18–21 with either HspB1_84–171 or peptides mimicking the PPR, because this region is phosphorylated in the MLP KO mice (Fig. 1C) and generally upon biomechanical stress ([26]) and becomes exposed thereafter. This strategy of using segments of HspB1 meant that we could avoid the problems of insolubilization of the full-length protein upon interaction with FLNC d18–21, as well as generally mitigate the confounding effects associated with the chaperone’s intrinsic polydispersity.
Because HspB1 can form disulfide-linked dimers, experiments involving the ACD were performed in the presence of 10-fold molar excess DTT. Gold-plated capillaries were prepared in-house. Native MS and IM-MS data were recorded on a Synapt G1 mass spectrometer (Waters) modified for the transmission of intact noncovalent protein complexes. HspB1_77–171 variants were analyzed at a concentration of 10 μM in 200 mM ammonium acetate (pH 6.9). […]
CCSs (Ω) of models from the PDB (trimmed in PyMOL as described in the Supplementary Materials) were calculated by the projection approximation method using IMPACT ([60]), accounting for N2 as the collision gas. […]

B1: FLNCd18–21: Human FLNC domains 18-21 (protein)
chain: TAKITGDDSMRTSQLNVGTSTDVSLKITESDLSQLTASIRAPSGNEEPCLLKRLPNRHIGISFTPKEVGEHVVSVRKSGKHVTNSPFKILVGPSEIGDASKVRVWGKGLSEGHTFQVAEFIVDTRNAGYGGLGLSIEGPSKVDINCEDMEDGTCKVTYCPTEPGTYIINIKFADKHVPGSPFTVKVTGEGRMKESITRRRQAPSIATIGSTCDLNLKIPGNWFQMVSAQERLTRTFTRSSHTYTRTERTEISKTRGGETKREVRVEESTQVGGDPFPAVFGDFLGRERLGSFGSITRQQEGEASSQDMTAQVTSPSGKVEAAEIVEGEDSAYSVRFVPQEMGPHTVAVKYRGQHVPGSPFQFTVGPLGEGGAHKVRAGGTGLERGVAGVPAEFSIWTREAGAGGLSIAVEGPSKAEIAFEDRKDGSCGVSYVVQEPGDYEVSIKFNDEHIPDSPFVVPVASLSDDA
modifications: left off: His6, C-terminal, state not stated | EEF, C-terminal, kept
  collision cross section (CCS): 37.2 ± 0.8 nm^2
